Laboratory results from publication PMC4657047, “Structure of the Human Factor VIII C2 Domain in Complex with the 3E6 Inhibitory Antibody” (Scientific Reports, 2015).

Target: T1, human blood coagulation factor VIII C2 domain (human, UniProt P00451)
T1 construct: C2 domain of human blood coagulation factor VIII; pET15b with N-terminal His6 tag and a thrombin cleavage site; also called fVIII C2 domain
Test: crystal structure; C2 domain/3E6 FAB binary complex formed at 37 °C for 30 minutes with 1.5-fold molar excess of C2 domain, separated on Superdex 75; crystals from 10 mM MES (pH 6.4-6.8), 20% (w/v) PEG 8000; two complexes in the asymmetric unit; 2.61 Å
Details: both partners purified

T1 sequence (P00451 2190-2351): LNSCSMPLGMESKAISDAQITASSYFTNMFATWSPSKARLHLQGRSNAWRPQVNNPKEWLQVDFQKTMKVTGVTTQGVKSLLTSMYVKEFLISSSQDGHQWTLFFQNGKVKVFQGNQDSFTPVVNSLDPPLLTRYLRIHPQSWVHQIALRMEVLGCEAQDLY

B1: 3E6 antigen-binding fragment (FAB) of the classical anti-fVIII C2 domain inhibitory antibody 3E6 (Fab, V domains shown)
VH: QIQLVQSGPELKKPGKTVKISCKASDYTFTDYSLHWVKQAPGKGLKWMGWINTETGDPAYADDFKGRFAFSLETSVRTAYLQINNLKNEDTAIYFCAREDDGLASWGQGTTLTVSS
VL: QIVLTQSPAIMSASPGEKVTMTCSASSTVSYMYWYQQKPGSSPRFLISDTSNLASGVPVRFSGSGSGTSYSLTISRIEAEDAATYYCQHWSSYPLTFGGGTKLELK
notes: heavy chain of the 3E6 FAB is chain A (complex 1) and chain E (complex 2) of PDB 4XZU; light chain of the 3E6 FAB is chain B (complex 1) and chain F (complex 2) of PDB 4XZU; Fab made by papain cleavage of the murine monoclonal IgG; complex 1 (chains A, B) is the more complete model; also called 3E6 FAB; 3E6 antibody
B1: binds.
